According to publication PMC10786891, “Massively parallel profiling of RNA-targeting CRISPR-Cas13d”:

T1: EsCas13d, nuclease-dead (Eubacterium siraeum, UniProt B0MS50, R295A;H300A;R849A;H854A)
T1 sequence: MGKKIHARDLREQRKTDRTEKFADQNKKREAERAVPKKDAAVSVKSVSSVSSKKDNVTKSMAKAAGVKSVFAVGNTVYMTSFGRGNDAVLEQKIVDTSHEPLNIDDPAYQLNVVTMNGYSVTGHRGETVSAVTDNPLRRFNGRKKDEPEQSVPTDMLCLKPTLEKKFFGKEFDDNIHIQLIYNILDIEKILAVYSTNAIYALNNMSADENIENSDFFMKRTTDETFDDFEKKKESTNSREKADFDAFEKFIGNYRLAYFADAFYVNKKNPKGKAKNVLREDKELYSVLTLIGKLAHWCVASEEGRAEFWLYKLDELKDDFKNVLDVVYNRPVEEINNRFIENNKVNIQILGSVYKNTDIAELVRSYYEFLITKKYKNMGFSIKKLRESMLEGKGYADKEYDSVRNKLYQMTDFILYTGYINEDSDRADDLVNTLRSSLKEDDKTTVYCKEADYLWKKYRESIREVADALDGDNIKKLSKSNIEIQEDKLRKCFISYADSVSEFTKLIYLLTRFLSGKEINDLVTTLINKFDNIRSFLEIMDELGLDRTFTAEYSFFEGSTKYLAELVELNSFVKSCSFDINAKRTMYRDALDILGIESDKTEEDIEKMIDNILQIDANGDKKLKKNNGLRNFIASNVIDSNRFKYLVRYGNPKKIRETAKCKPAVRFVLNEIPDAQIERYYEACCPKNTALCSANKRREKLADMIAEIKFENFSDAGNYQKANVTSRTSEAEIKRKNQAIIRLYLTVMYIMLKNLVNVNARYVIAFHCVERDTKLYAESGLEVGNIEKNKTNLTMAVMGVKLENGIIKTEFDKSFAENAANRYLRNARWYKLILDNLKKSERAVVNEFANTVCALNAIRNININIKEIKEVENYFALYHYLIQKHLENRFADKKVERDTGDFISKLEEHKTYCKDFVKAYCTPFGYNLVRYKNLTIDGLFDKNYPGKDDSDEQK


Biological target: T1, EsCas13d, nuclease-dead
Experiment: crRNA (strand 1, pre-loaded); Mg2+; 40 mM Tris-HCl pH 7.5, 150 mM NaCl, 6 mM MgCl2, 1 mM DTT, 0.1% Tween-20, 0.2 mg/ml BSA; 25 C; 10 min per concentration, then washed
Settings: tags: His6-TwinStrep-SUMO cleaved; N-terminal SNAP kept (SNAP-Surface 488); label: 3' end held by stalled T7 RNA polymerase

Binder	Kd [nM]
target 1 G12A,A18U (mixed) RNA 1: CACCCGUGCAAAAAUGCAGGGGUCUAAAACUGAGCGGAUAACCUCUCUAUGG RNA 2: GGGAAUGGAUCCACAUCUACGAAUUCGUACCAUUGAGAGAUUAUCCGCUCACCGAGAUCGGAAGAGCACACGU	25.2 ± 2.7
target 1 insC 3' of 12,insU 3' of 4 (mixed) RNA 1: CACCCGUGCAAAAAUGCAGGGGUCUAAAACUGAGCGGAUAACCUCUCUAUGG RNA 2: GGGAAUGGAUCCACAUCUACGAAUUCGUACCAUAGAGAGGCUUAUCCGCUUCACCGAGAUCGGAAGAGCACACGU	7.5 ± 0.8
target 3 G3U,U7A (mixed) RNA 1: CACCCGUGCAAAAUUGCAGGGGUCUAAAACGACCUGAAUAUUUCAGAUCAAA RNA 2: GGGAAUGGAUCCACAUCUACGAAUUCGUUUUUGAUCUGAAAUAUACAGUUCUGCAGAUCGGAAGAGCACACGU	37 ± 4.5
target 3 C1U,A18G (mixed) RNA 1: CACCCGUGCAAAAUUGCAGGGGUCUAAAACGACCUGAAUAUUUCAGAUCAAA RNA 2: GGGAAUGGAUCCACAUCUACGAAUUCGUUUUUGGUCUGAAAUAUUCAGGUUUGCAGAUCGGAAGAGCACACGU	43 ± 7
target 3 insC 3' of 21,insG 3' of 5 (mixed) RNA 1: CACCCGUGCAAAAUUGCAGGGGUCUAAAACGACCUGAAUAUUUCAGAUCAAA RNA 2: GGGAAUGGAUCCACAUCUACGAAUUCGUUUUCUGAUCUGAAAUAUUCAGGGUCUGCAGAUCGGAAGAGCACACGU	81 ± 15.5
target 3 insG 3' of 7,insU 3' of 6 (mixed) RNA 1: CACCCGUGCAAAAUUGCAGGGGUCUAAAACGACCUGAAUAUUUCAGAUCAAA RNA 2: GGGAAUGGAUCCACAUCUACGAAUUCGUUUUUGAUCUGAAAUAUUGCUAGGUCUGCAGAUCGGAAGAGCACACGU	20.1 ± 1.9
target 3 insC 3' of 7,insC 3' of 3 (mixed) RNA 1: CACCCGUGCAAAAUUGCAGGGGUCUAAAACGACCUGAAUAUUUCAGAUCAAA RNA 2: GGGAAUGGAUCCACAUCUACGAAUUCGUUUUUGAUCUGAAAUAUUCCAGGCUCUGCAGAUCGGAAGAGCACACGU	97 ± 33
target 3 C1A (mixed) RNA 1: CACCCGUGCAAAAUUGCAGGGGUCUAAAACGACCUGAAUAUUUCAGAUCAAA RNA 2: GGGAAUGGAUCCACAUCUACGAAUUCGUUUUUGAUCUGAAAUAUUCAGGUAUGCAGAUCGGAAGAGCACACGU	20 ± 2.55
target 3 A9G,U22A (mixed) RNA 1: CACCCGUGCAAAAUUGCAGGGGUCUAAAACGACCUGAAUAUUUCAGAUCAAA RNA 2: GGGAAUGGAUCCACAUCUACGAAUUCGUUAUUGAUCUGAAAUGUUCAGGUCUGCAGAUCGGAAGAGCACACGU	27.6 ± 3.15
target 3 G4U,C6G (mixed) RNA 1: CACCCGUGCAAAAUUGCAGGGGUCUAAAACGACCUGAAUAUUUCAGAUCAAA RNA 2: GGGAAUGGAUCCACAUCUACGAAUUCGUUUUUGAUCUGAAAUAUUGAUGUCUGCAGAUCGGAAGAGCACACGU	68.5 ± 15
target 3 C1A,A18G (mixed) RNA 1: CACCCGUGCAAAAUUGCAGGGGUCUAAAACGACCUGAAUAUUUCAGAUCAAA RNA 2: GGGAAUGGAUCCACAUCUACGAAUUCGUUUUUGGUCUGAAAUAUUCAGGUAUGCAGAUCGGAAGAGCACACGU	48.5 ± 14
target 3 C1G,U10A (mixed) RNA 1: CACCCGUGCAAAAUUGCAGGGGUCUAAAACGACCUGAAUAUUUCAGAUCAAA RNA 2: GGGAAUGGAUCCACAUCUACGAAUUCGUUUUUGAUCUGAAAAAUUCAGGUGUGCAGAUCGGAAGAGCACACGU	43 ± 14
target 3 C1G,A18G (mixed) RNA 1: CACCCGUGCAAAAUUGCAGGGGUCUAAAACGACCUGAAUAUUUCAGAUCAAA RNA 2: GGGAAUGGAUCCACAUCUACGAAUUCGUUUUUGGUCUGAAAUAUUCAGGUGUGCAGAUCGGAAGAGCACACGU	18.6 ± 2.6
target 3 insA 3' of 4,insU 3' of 4 (mixed) RNA 1: CACCCGUGCAAAAUUGCAGGGGUCUAAAACGACCUGAAUAUUUCAGAUCAAA RNA 2: GGGAAUGGAUCCACAUCUACGAAUUCGUUUUUGAUCUGAAAUAUUCAGAUGUCUGCAGAUCGGAAGAGCACACGU	44 ± 16
target 3 G3C,A5U (mixed) RNA 1: CACCCGUGCAAAAUUGCAGGGGUCUAAAACGACCUGAAUAUUUCAGAUCAAA RNA 2: GGGAAUGGAUCCACAUCUACGAAUUCGUUUUUGAUCUGAAAUAUUCUGCUCUGCAGAUCGGAAGAGCACACGU	25 ± 2.6
target 3 insA 3' of 6,insU 3' of 3 (mixed) RNA 1: CACCCGUGCAAAAUUGCAGGGGUCUAAAACGACCUGAAUAUUUCAGAUCAAA RNA 2: GGGAAUGGAUCCACAUCUACGAAUUCGUUUUUGAUCUGAAAUAUUCAAGGUUCUGCAGAUCGGAAGAGCACACGU	5.25 ± 0.5
target 3 A18G (mixed) RNA 1: CACCCGUGCAAAAUUGCAGGGGUCUAAAACGACCUGAAUAUUUCAGAUCAAA RNA 2: GGGAAUGGAUCCACAUCUACGAAUUCGUUUUUGGUCUGAAAUAUUCAGGUCUGCAGAUCGGAAGAGCACACGU	19.1 ± 1.7
target 3 insC 3' of 5,insC 3' of 4 (mixed) RNA 1: CACCCGUGCAAAAUUGCAGGGGUCUAAAACGACCUGAAUAUUUCAGAUCAAA RNA 2: GGGAAUGGAUCCACAUCUACGAAUUCGUUUUUGAUCUGAAAUAUUCACGCGUCUGCAGAUCGGAAGAGCACACGU	11.6 ± 0.65
target 3 C6G,U7C (mixed) RNA 1: CACCCGUGCAAAAUUGCAGGGGUCUAAAACGACCUGAAUAUUUCAGAUCAAA RNA 2: GGGAAUGGAUCCACAUCUACGAAUUCGUUUUUGAUCUGAAAUAUCGAGGUCUGCAGAUCGGAAGAGCACACGU	60.5 ± 5
target 3 insA 3' of 20,insC 3' of 20 (mixed) RNA 1: CACCCGUGCAAAAUUGCAGGGGUCUAAAACGACCUGAAUAUUUCAGAUCAAA RNA 2: GGGAAUGGAUCCACAUCUACGAAUUCGUUUUUACGAUCUGAAAUAUUCAGGUCUGCAGAUCGGAAGAGCACACGU	~110
target 3 insU 3' of 11,insA 3' of 2 (mixed) RNA 1: CACCCGUGCAAAAUUGCAGGGGUCUAAAACGACCUGAAUAUUUCAGAUCAAA RNA 2: GGGAAUGGAUCCACAUCUACGAAUUCGUUUUUGAUCUGAAAUUAUUCAGGUACUGCAGAUCGGAAGAGCACACGU	56.5 ± 8.5
target 3 C1U,G3C (mixed) RNA 1: CACCCGUGCAAAAUUGCAGGGGUCUAAAACGACCUGAAUAUUUCAGAUCAAA RNA 2: GGGAAUGGAUCCACAUCUACGAAUUCGUUUUUGAUCUGAAAUAUUCAGCUUUGCAGAUCGGAAGAGCACACGU	49.5 ± 15.5
target 3 C1A,A5C (mixed) RNA 1: CACCCGUGCAAAAUUGCAGGGGUCUAAAACGACCUGAAUAUUUCAGAUCAAA RNA 2: GGGAAUGGAUCCACAUCUACGAAUUCGUUUUUGAUCUGAAAUAUUCCGGUAUGCAGAUCGGAAGAGCACACGU	58.5 ± 10
target 3 insA 3' of 22 (mixed) RNA 1: CACCCGUGCAAAAUUGCAGGGGUCUAAAACGACCUGAAUAUUUCAGAUCAAA RNA 2: GGGAAUGGAUCCACAUCUACGAAUUCGUUUAUUGAUCUGAAAUAUUCAGGUCUGCAGAUCGGAAGAGCACACGU	20.6 ± 3.4
